For test [1], the target named is PFV IN(ΔCTD) intasome: full-length PFV IN(K120E) at the inner protomers, PFV IN(D273K, ΔCTD) at the outer protomers (prototype foamy virus). Kind of test: pull-down.
Test [2] deals with FL PFV intasome (tetramer of full-length prototype foamy virus integrase bound to two viral DNA ends) (prototype foamy virus). Kind of test: pull-down.

As for “601 nucleosome treated with trypsin to remove the histone tails (from UniProt P04908 1-130; O60814 1-126; P68431 1-136; P62805 1-103) (complex)”, the percent of the lane's Coomassie signal in the TL H4 band on the beads in test [1] stood at 2.5%; in test [2], 11.2%.

Source of the values: paper PMC8050864.
